Measurements taken from article PMC4174979 (DNA repair, 2014).

B1: Sgs1_(103–322) (domain or fragment, S. cerevisiae, UniProt P35187 103-322, looked up)
chain: ADVPMVDIPASTSVVSNPRTPNGSKTHNFNTFRPHMASSLVENDSSRNLGSRNNNKSVIDNSSIGKQLENDIKLEVIRLQGSLIMALKEQSKLLLQKCSIIESTSLSEDAKRLQLSRDIRPQLSNMSIRIDSLEKEIIKAKKDGMSKDQSKGRSQVSSQDDNIISSILPSPLEYNTSSRNSNLTSTTATTVTKALAITGAKQNITNNTGKNSNNDSNNDD
B2: Sgs1_(157–257) (domain or fragment, S. cerevisiae, UniProt P35187 157-257, looked up)
chain: NKSVIDNSSIGKQLENDIKLEVIRLQGSLIMALKEQSKLLLQKCSIIESTSLSEDAKRLQLSRDIRPQLSNMSIRIDSLEKEIIKAKKDGMSKDQSKGRSQ
B3: BLM_(95–294) (domain or fragment, human, UniProt P54132 95-294, looked up)
chain: AGQETQRGGSKSLLPDFLQTPKEVVCTTQNTPTVKKSRDTALKKLEFSSSPDSLSTINDWDDMDDFDTSETSKSFVTPPQSHFVRVSTAQKSKKGKRNFFKAQLYTTNTVKTDLPPPSSESEQIDLTEEQKDDSEWLSSDVICIDDGPIAEVHINEDAQESDSLKTHLEDERDNSEKKKNLEEAELHSTEKVPCIEFDDD

Target: the molecule itself
Test: SEC

Stoichiometry N, 6:
B1
B2
B3
